B1: minF1; a variant is named by its letters at N, in order (parent)
chain: GAGACCGCAACTGAAAAGTTGTTNNNNAANNNNGGNTNNATTTCTGCACGTAGAAGCAAAAGGC

Variants of: B1
Assay: fraction ligated after 30 min (ligated reads / total reads); higher = more ligase activity
Conditions: with F1*subA RNA substrate (template-directed ligation), 42 °C
Description: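 Chip-synthesised pool of minF1 ligase ribozyme variants (single and double substitutions, single to quadruple deletions, bulge and P2 designed variants) was transcribed with T7 and reacted as a pool with excess substrate F1*subA for 30 min at 42 C in 50 mM EPPS pH 8.5, 25 mM MgCl2. Ligated and unligated RNAs were separated by PAGE, barcoded by RT and deep sequenced; fraction ligated = ligated reads / total reads, relative activity = FL / FL of wild-type minF1 (0.76); sequencing FL correlated with PAGE (R2 = 0.98). Sequences are the DNA template of the ribozyme.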
With TCAGGATGTGA A29T the fraction ligated was 0.00155.
For TCAGGATGTGA A29G, the fraction ligated was 0.00144.
TCAGAGGAGTT G34T T37G A40G showed a fraction ligated of 0.000453.
With ACAGATGGGTT G34A G35T T37G the fraction ligated was 0.000596.
For TCGAGGATTGA T23A A29T, the fraction ligated was 0.00747.
Variant TCGATGATGTA T23A has a fraction ligated of 0.00263.
ACAGATGTTGA showed a fraction ligated of 0.00338.
With TCGAGATGTGA T23A A29T the fraction ligated was 0.00198.
Work on TCGAGATGTGA T23A A29G yielded a fraction ligated of 0.00586.
ACGATGGAGTT G34T T37G showed a fraction ligated of 0.00155.
In the case of TCGAGATGTGA T23A, the fraction ligated is reported as 0.00396.
In the case of ACAGGGTGTGA, the fraction ligated is reported as 0.00435.
TCGATGGAGTG T23A gave a fraction ligated of 0.02.
Variant ACAGAGGAGTT G34T T37G A40G has a fraction ligated of 0.00205.
In the case of TCAGAGTGTGA T23A, the fraction ligated is reported as 0.00281.
For ACAATGGTGTG, the fraction ligated was 0.00545.
ACAATGGTGTA gave a fraction ligated of 0.00264.
TCAGGGATTGA gave a fraction ligated of 0.00138.
With TCAGTGGAGTT G34T T37G the fraction ligated was 0.00084.
TCAGGATGTGA T23A A29T gave a fraction ligated of 0.00222.
TCAGGATGTGA T23A A29G was tested, and the fraction ligated was 0.00232.
Variant TCAGATGAGTG T23A G34T has a fraction ligated of 0.00649.
ACAGTGGAGTG gave a fraction ligated of 0.00883.
For ACAGTGGAGTA, the fraction ligated was 0.00375.
With TCAGATGGGTA G34A the fraction ligated was 0.00212.
TCAGATGGGTA G34T showed a fraction ligated of 0.00105.
TCAGAGGTTGA T23A showed a fraction ligated of 0.000867.
ACAGATATTGA showed a fraction ligated of 0.0012.
ACAGAGGAGTA G34T showed a fraction ligated of 0.000671.
With ACAGATGGGTG the fraction ligated was 0.00567.
ACAGATGGGTA was tested, and the fraction ligated was 0.00187.
ACGAGGAGTGA showed a fraction ligated of 0.000641.
For TCAGATTGTGA, the fraction ligated was 0.00132.
Variant TCAGATGGGTG G34T has a fraction ligated of 0.00277.
TCAGATGGGTG G34A showed a fraction ligated of 0.00479.
With TCAGATGGGTT T23A G34T T37G A40G the fraction ligated was 0.00157.
Variant TCAGTGATGTA has a fraction ligated of 0.000465.
In the case of TCAGTGATGTG, the fraction ligated is reported as 0.00561.
ACAGATGGGTT G34T T37G A40G showed a fraction ligated of 0.00113.
TCAGAGATGTA T23A was tested, and the fraction ligated was 0.00211.
Variant ACGAGGATTGA A29T has a fraction ligated of 0.00766.
Work on TCAGATAGTGA T23A yielded a fraction ligated of 0.00511.
TCAGAGGAGTA T23A gave a fraction ligated of 0.00164.
Variant TCAGTGGATGA has a fraction ligated of 0.00185.
TCAGTGGGTGA gave a fraction ligated of 0.00233.
For TCAGATGTGTA, the fraction ligated was 0.000796.
Work on TCAGATGTGTG yielded a fraction ligated of 0.00413.
For TCAGGGATTGA T23A A29T, the fraction ligated was 0.0045.
For ACAGAGGAGTA, the fraction ligated was 0.0028.
ACAGAGGAGTG gave a fraction ligated of 0.00401.
ACGATGGGTGA showed a fraction ligated of 0.00155.
TCGATGGAGTT T23A G34T T37G was tested, and the fraction ligated was 0.001.
TCGAGGATGTA A29T gave a fraction ligated of 0.00472.
Work on TCAGTGGTGTA T23A yielded a fraction ligated of 0.00153.
ACAGTGTGTGA showed a fraction ligated of 0.00188.
For TCGAGGAGTGA A29T, the fraction ligated was 0.00284.
ACAGTGATTGA showed a fraction ligated of 0.00326.
Variant TCGAGATGTGA has a fraction ligated of 0.0048.
Work on TCAGTGTGTGA T23A yielded a fraction ligated of 0.00289.
For TCGATGGAGTT G34T T37G A40G, the fraction ligated was 0.000433.
In the case of TCAGAATGTGA T23A, the fraction ligated is reported as 0.00396.
In the case of TCGATATGTGA T23A, the fraction ligated is reported as 0.00444.
For TCAGTGGAGTA T23A, the fraction ligated was 0.00382.
Work on TCAGTGATGTA T23A yielded a fraction ligated of 0.00165.
TCAGATTGTGA T23A was tested, and the fraction ligated was 0.00184.
Work on TCGAGGTGTGA T23A yielded a fraction ligated of 0.00322.
In the case of TCAGTGGTGTG T23A, the fraction ligated is reported as 0.00413.
With TCAGGGTGTGA A29T the fraction ligated was 0.00272.
With TCGATGGAGTA T23A G34T the fraction ligated was 0.139.
In the case of ACGATATGTGA, the fraction ligated is reported as 0.00174.
TCAGTATGTGA gave a fraction ligated of 0.00458.
TCAGGGAGTGA T23A A29T was tested, and the fraction ligated was 0.000582.
Work on ACAGATGAGTG G34T yielded a fraction ligated of 0.00398.
In the case of ACAGGATGTGA, the fraction ligated is reported as 0.00342.
For TCAGATGGGTT G34A G35T T37G, the fraction ligated was 0.00107.
In the case of TCAGATGATGA, the fraction ligated is reported as 0.00144.
TCAGATGAGTG T23A was tested, and the fraction ligated was 0.00683.
For TCAGAGGTGTA T23A, the fraction ligated was 0.00248.
With ACAATGGTTGA the fraction ligated was 0.00142.
Variant TCAGAGATTGA T23A has a fraction ligated of 0.00203.
For TCGATGGTGTG, the fraction ligated was 0.00467.
Variant TCGATGGTGTA has a fraction ligated of 0.00285.
In the case of TCAATGGTGTG T23A, the fraction ligated is reported as 0.00466.

Reference: the supplement of paper PMC6755084
